According to paper PMC2953525, “Subtle Alterations in PCNA-Partner Interactions Severely Impair DNA Replication and Repair” (PLoS Biology, 2010):
Blank lines part the entries; values can stand above or below the binder they belong to.

Assays:
[1] = molecular target: T1, pol30-Rad27E6 of the mutant strain (yeast, UniProt P15873 1-258, IDCL DIDADFLKIEEL to DGDYDILKIREL); assay: ELISA; PCNA captured from crude yeast extract (3 mg/ml) on plates coated with anti-PCNA antibody; bound GFP-tagged partner detected by anti-GFP, normalised to the anti-His signal of PCNA; settings: partners not purified
T1 construct: PCNA (POL30), yeast; source: yeast, sole source of PCNA under the native POL30 promoter, in crude cell extract
T1 sequence: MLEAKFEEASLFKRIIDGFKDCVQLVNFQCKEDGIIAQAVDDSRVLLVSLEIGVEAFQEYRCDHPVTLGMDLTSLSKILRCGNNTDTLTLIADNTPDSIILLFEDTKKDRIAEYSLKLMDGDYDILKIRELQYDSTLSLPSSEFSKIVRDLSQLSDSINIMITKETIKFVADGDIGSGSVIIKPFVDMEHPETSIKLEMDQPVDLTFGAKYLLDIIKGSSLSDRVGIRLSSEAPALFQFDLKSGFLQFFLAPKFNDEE

pol30-79 (yeast), P15873 = molecular target: T2, pol30-79 (yeast), P15873; assay: two-hybrid; quantitative Y2H: generation time of the YRG2 strains in liquid SC-Leu-Trp-His, given relative to cells expressing WT PCNA; average of at least 3 experiments; settings: remark: other sources report otherwise
T2 chain: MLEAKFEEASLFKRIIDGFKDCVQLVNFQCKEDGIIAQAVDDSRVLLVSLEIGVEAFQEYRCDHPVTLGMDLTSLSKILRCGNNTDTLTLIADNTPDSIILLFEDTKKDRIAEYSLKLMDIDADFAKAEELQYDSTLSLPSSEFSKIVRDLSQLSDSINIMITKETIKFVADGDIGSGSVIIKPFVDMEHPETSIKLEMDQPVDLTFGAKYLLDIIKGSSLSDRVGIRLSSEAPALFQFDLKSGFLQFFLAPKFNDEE

[2] = molecular target: T3, pol30-Rad30E2 of the mutant strain (yeast, UniProt P15873 1-258, IDCL DIDADFLKIEEL to DDDWDFLKILEL); assay: ELISA; PCNA captured from crude yeast extract (3 mg/ml) on plates coated with anti-PCNA antibody; bound GFP-tagged partner detected by anti-GFP, normalised to the anti-His signal of PCNA; settings: partners not purified
T3 construct: PCNA (POL30), yeast; source: yeast, sole source of PCNA under the native POL30 promoter, in crude cell extract
T3 sequence: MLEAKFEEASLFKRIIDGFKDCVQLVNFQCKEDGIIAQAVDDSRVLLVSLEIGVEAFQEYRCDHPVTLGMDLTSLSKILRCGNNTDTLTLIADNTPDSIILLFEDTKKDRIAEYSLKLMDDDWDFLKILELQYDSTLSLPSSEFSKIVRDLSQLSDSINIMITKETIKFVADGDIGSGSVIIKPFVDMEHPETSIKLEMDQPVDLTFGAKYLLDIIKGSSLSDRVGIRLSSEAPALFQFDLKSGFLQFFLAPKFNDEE

pol30-Rad30E2 = molecular target: T4, pol30-Rad30E2 (yeast, UniProt P15873 1-258, IDCL DIDADFLKIEEL to DDDWDFLKILEL); assay: two-hybrid; quantitative Y2H: generation time of the YRG2 strains in liquid SC-Leu-Trp-His, given relative to cells expressing WT PCNA; average of at least 3 experiments; settings: partners not purified
T4 construct: PCNA (POL30), yeast; source: yeast two-hybrid fusion (pAD-GAL4, strain YRG2)
T4 sequence: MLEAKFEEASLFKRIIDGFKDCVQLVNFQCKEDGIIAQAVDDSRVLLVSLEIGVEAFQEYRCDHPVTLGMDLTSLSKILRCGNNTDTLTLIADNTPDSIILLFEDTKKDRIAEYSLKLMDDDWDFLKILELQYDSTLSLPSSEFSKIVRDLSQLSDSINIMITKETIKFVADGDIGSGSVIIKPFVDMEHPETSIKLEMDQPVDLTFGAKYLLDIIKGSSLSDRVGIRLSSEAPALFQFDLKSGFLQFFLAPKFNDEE

pol30-Rad30E9 = molecular target: T5, pol30-Rad30E9 (yeast, UniProt P15873 1-258, IDCL DIDADFLKIEEL to DNDWDFLKIDEL); assay: as above; settings: partners not purified
T5 construct: PCNA (POL30), yeast; also called Pol30-Rad30E9p; source: yeast two-hybrid fusion (pAD-GAL4, strain YRG2)
T5 sequence: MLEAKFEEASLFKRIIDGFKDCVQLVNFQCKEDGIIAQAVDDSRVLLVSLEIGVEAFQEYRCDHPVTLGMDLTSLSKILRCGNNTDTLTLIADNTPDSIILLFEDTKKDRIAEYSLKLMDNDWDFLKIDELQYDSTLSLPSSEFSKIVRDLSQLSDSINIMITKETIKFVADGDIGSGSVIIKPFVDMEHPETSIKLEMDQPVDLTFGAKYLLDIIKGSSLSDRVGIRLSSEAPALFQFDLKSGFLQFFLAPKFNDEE

pol30-Rad27L1 = molecular target: T6, pol30-Rad27L1 (yeast, UniProt P15873 1-258, IDCL DIDADFLKIEEL to D––VDILKIGEL); assay: two-hybrid; pAD-GAL4-PCNA WT or mutant (called bait) and pBD-GAL4-partner (called prey) in strain YRG2; 10-fold serial dilutions spotted on SC-Leu-Trp-His plates, 30°C, 3 d; growth similar to WT PCNA is denoted 1; settings: partners not purified
T6 construct: PCNA (POL30), yeast; two residues after the first aspartic acid of the IDCL are deleted; source: yeast two-hybrid fusion (pAD-GAL4, strain YRG2)
T6 sequence: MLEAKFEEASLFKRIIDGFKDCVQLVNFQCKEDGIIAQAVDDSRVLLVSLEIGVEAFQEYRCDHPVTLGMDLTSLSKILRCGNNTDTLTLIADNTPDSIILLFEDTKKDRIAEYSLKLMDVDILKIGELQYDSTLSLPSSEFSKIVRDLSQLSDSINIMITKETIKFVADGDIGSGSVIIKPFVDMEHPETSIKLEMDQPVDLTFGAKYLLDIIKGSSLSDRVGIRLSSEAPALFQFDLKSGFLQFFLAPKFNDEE

pol30-Rad27L2 = molecular target: T7, pol30-Rad27L2 (yeast, UniProt P15873 1-258, IDCL DIDADFLKIEEL to D––VDTLKITEL); assay: as above; settings: partners not purified
T7 construct: PCNA (POL30), yeast; two residues after the first aspartic acid of the IDCL are deleted; source: yeast two-hybrid fusion (pAD-GAL4, strain YRG2)
T7 sequence: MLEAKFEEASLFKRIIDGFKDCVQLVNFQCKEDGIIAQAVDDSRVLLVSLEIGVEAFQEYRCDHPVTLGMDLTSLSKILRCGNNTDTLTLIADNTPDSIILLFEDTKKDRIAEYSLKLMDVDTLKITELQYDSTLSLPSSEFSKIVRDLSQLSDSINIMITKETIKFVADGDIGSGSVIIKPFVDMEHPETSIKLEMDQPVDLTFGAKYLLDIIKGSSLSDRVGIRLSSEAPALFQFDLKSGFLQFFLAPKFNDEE

[3] = molecular target: the molecule itself; assay: SEC; Superdex 200 10/300 GL, activity buffer (300 mM NaCl, 50 mM Tris-HCl, pH 8), monomer concentrations of 3–8 µM

B2: Rad30, Q04049 1-632 (natural protein)
chain: MSKFTWKELIQLGSPSKAYESSLACIAHIDMNAFFAQVEQMRCGLSKEDPVVCVQWNSIIAVSYAARKYGISRMDTIQEALKKCSNLIPIHTAVFKKGEDFWQYHDGCGSWVQDPAKQISVEDHKVSLEPYRRESRKALKIFKSACDLVERASIDEVFLDLGRICFNMLMFDNEYELTGDLKLKDALSNIREAFIGGNYDINSHLPLIPEKIKSLKFEGDVFNPEGRDLITDWDDVILALGSQVCKGIRDSIKDILGYTTSCGLSSTKNVCKLASNYKKPDAQTIVKNDCLLDFLDCGKFEITSFWTLGGVLGKELIDVLDLPHENSIKHIRETWPDNAGQLKEFLDAKVKQSDYDRSTSNIDPLKTADLAEKLFKLSRGRYGLPLSSRPVVKSMMSNKNLRGKSCNSIVDCISWLEVFCAELTSRIQDLEQEYNKIVIPRTVSISLKTKSYEVYRKSGPVAYKGINFQSHELLKVGIKFVTDLDIKGKNKSYYPLTKLSMTITNFDIIDLQKTVVDMFGNQVHTFKSSAGKEDEEKTTSSKADEKTPKLECCKYQVTFTDQKALQEHADYHLALKLSEGLNGAEESSKNLSFGEKRLLFSRKRPNSQHTATPQKKQVTSSKNILSFFTRKK
- fold change in affinity relative to WT PCNA (Y2H generation time) (pol30-79 (yeast), P15873): 0.4 fold

B5: proliferating cell nuclear antigen (PCNA), 6×Histidine-tagged (natural protein, yeast)
chain: MLEAKFEEASLFKRIIDGFKDCVQLVNFQCKEDGIIAQAVDDSRVLLVSLEIGVEAFQEYRCDHPVTLGMDLTSLSKILRCGNNTDTLTLIADNTPDSIILLFEDTKKDRIAEYSLKLMDIDADFLKIEELQYDSTLSLPSSEFSKIVRDLSQLSDSINIMITKETIKFVADGDIGSGSVIIKPFVDMEHPETSIKLEMDQPVDLTFGAKYLLDIIKGSSLSDRVGIRLSSEAPALFQFDLKSGFLQFFLAPKFNDEE
notes: PCNA (POL30), yeast; cloned into pET28 by NdeI and XhoI; also called WT PCNA; Pol30p; source: E. coli BL21, purified (Ni-NTA)
- stoichiometry N [3]: 3

Other lines, results leading:

- increase in the amount of complex relative to the POL30 strain [1]: 17%
B1: GFP-tagged Rad27 (natural protein, yeast, UniProt P26793 1-382, looked up)
chain: MGIKGLNAIISEHVPSAIRKSDIKSFFGRKVAIDASMSLYQFLIAVRQQDGGQLTNEAGETTSHLMGMFYRTLRMIDNGIKPCYVFDGKPPDLKSHELTKRSSRRVETEKKLAEATTELEKMKQERRLVKVSKEHNEEAQKLLGLMGIPYIIAPTEAEAQCAELAKKGKVYAAASEDMDTLCYRTPFLLRHLTFSEAKKEPIHEIDTELVLRGLDLTIEQFVDLCIMLGCDYCESIRGVGPVTALKLIKTHGSIEKIVEFIESGESNNTKWKIPEDWPYKQARMLFLDPEVIDGNEINLKWSPPKEKELIEYLCDDKKFSEERVKSGISRLKKGLKSGIQGRLDGFFQVVPKTKEQLAAAAKRAQENKKLNKNKNKVTKGRR
notes: Rad27, yeast, tagged at its natural locus; source: yeast, GFP-tagged at the natural locus, in crude cell extract; not shown: GFP, C-terminal, kept

- increase in the amount of complex relative to the POL30 strain [2]: 70%
B3: GFP-tagged Rad30 (natural protein, yeast, UniProt Q04049 1-632, looked up)
chain: MSKFTWKELIQLGSPSKAYESSLACIAHIDMNAFFAQVEQMRCGLSKEDPVVCVQWNSIIAVSYAARKYGISRMDTIQEALKKCSNLIPIHTAVFKKGEDFWQYHDGCGSWVQDPAKQISVEDHKVSLEPYRRESRKALKIFKSACDLVERASIDEVFLDLGRICFNMLMFDNEYELTGDLKLKDALSNIREAFIGGNYDINSHLPLIPEKIKSLKFEGDVFNPEGRDLITDWDDVILALGSQVCKGIRDSIKDILGYTTSCGLSSTKNVCKLASNYKKPDAQTIVKNDCLLDFLDCGKFEITSFWTLGGVLGKELIDVLDLPHENSIKHIRETWPDNAGQLKEFLDAKVKQSDYDRSTSNIDPLKTADLAEKLFKLSRGRYGLPLSSRPVVKSMMSNKNLRGKSCNSIVDCISWLEVFCAELTSRIQDLEQEYNKIVIPRTVSISLKTKSYEVYRKSGPVAYKGINFQSHELLKVGIKFVTDLDIKGKNKSYYPLTKLSMTITNFDIIDLQKTVVDMFGNQVHTFKSSAGKEDEEKTTSSKADEKTPKLECCKYQVTFTDQKALQEHADYHLALKLSEGLNGAEESSKNLSFGEKRLLFSRKRPNSQHTATPQKKQVTSSKNILSFFTRKK
notes: Rad30, yeast, tagged at its natural locus; source: yeast, GFP-tagged at the natural locus, in crude cell extract; not shown: GFP, C-terminal, kept

- fold change in affinity relative to WT PCNA (Y2H generation time) (pol30-Rad30E2): 1.4 fold
- fold change in affinity relative to WT PCNA (Y2H generation time) (pol30-Rad30E9): 1.6 fold
- fold change in affinity relative to WT PCNA (Y2H) (pol30-Rad27L1): 0.4 fold
- fold change in affinity relative to WT PCNA (Y2H) (pol30-Rad27L2): 0.5 fold
B4: Rad30 (natural protein, yeast, UniProt Q04049 1-632, looked up)
chain: MSKFTWKELIQLGSPSKAYESSLACIAHIDMNAFFAQVEQMRCGLSKEDPVVCVQWNSIIAVSYAARKYGISRMDTIQEALKKCSNLIPIHTAVFKKGEDFWQYHDGCGSWVQDPAKQISVEDHKVSLEPYRRESRKALKIFKSACDLVERASIDEVFLDLGRICFNMLMFDNEYELTGDLKLKDALSNIREAFIGGNYDINSHLPLIPEKIKSLKFEGDVFNPEGRDLITDWDDVILALGSQVCKGIRDSIKDILGYTTSCGLSSTKNVCKLASNYKKPDAQTIVKNDCLLDFLDCGKFEITSFWTLGGVLGKELIDVLDLPHENSIKHIRETWPDNAGQLKEFLDAKVKQSDYDRSTSNIDPLKTADLAEKLFKLSRGRYGLPLSSRPVVKSMMSNKNLRGKSCNSIVDCISWLEVFCAELTSRIQDLEQEYNKIVIPRTVSISLKTKSYEVYRKSGPVAYKGINFQSHELLKVGIKFVTDLDIKGKNKSYYPLTKLSMTITNFDIIDLQKTVVDMFGNQVHTFKSSAGKEDEEKTTSSKADEKTPKLECCKYQVTFTDQKALQEHADYHLALKLSEGLNGAEESSKNLSFGEKRLLFSRKRPNSQHTATPQKKQVTSSKNILSFFTRKK
notes: Rad30 (DNA polymerase), yeast; also called pBD-Rad30; source: yeast two-hybrid fusion (pBD-GAL4, strain YRG2)
